Test results published in US20210261648A1 (published 2021).
Positions count from the first letter of the chain named.

T1: FcγRIIa type H extracellular domain with C-terminal His tag (human, UniProt P12318 34-217)
T1 construct: extracellular domain; also called FcgRIIaH; FcγRIIa H
T1 sequence (looked up): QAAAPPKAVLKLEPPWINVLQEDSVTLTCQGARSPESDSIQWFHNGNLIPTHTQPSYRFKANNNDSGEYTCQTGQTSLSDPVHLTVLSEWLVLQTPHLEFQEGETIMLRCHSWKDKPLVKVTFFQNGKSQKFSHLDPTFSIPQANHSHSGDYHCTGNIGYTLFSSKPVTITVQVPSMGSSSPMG

T2: FcγRIIb (human, UniProt P31994 43-217)
T2 construct: extracellular domain; also called FcgRIIb; CD32B
T2 sequence (looked up): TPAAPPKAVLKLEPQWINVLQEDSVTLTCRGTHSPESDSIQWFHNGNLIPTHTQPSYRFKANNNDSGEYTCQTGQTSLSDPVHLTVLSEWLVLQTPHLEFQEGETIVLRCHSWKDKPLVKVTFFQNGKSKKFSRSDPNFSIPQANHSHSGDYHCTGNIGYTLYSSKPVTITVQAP

T3: FcγRIIa type R (human, UniProt P12318 34-217)
T3 chain: T1 sequence (looked up) with H134R

B1: IL6R-BP130/IL6R-L (antibody, human IgG1, kappa)
heavy: QVQLQESGPGLVKPSETLSLTCAVSGHSISHDHAWSWVRQPPGEGLEWIGFISYSGITNYNPSLQGRVTISRDNSKNTLYLQMNSLRAEDTAVYYCARSLARTTAMDYWGEGTLVTVSSASTKGPSVFPLAPSSKSTSGGTAALGCLVKDYFPEPVTVSWNSGALTSGVHTFPAVLQSSGLYSLSSVVTVPSSSLGTQTYICNVNHKPSNTKVDKKVEPKSCDKTHTCPPCPAPDLLGGDSVFLFPPKPKDTLMISRTPEVTCVVVDVSHEDPEVKFNWYVDGVEVHNAKTKPREEQYNSTYRVVSVLTVLHQDWLNGKEYKCKMSNKALPKPIEKTISKAKGQPREPQVYTLPPSRDELTKNQVSLTCLVKGFYPSDIAVEWESNGQPENNYKTTPPVLDSDGSFFLYSKLTVDKSRWQQGNVFSCSVMHEALHNHYTQESLSLSP
light: not shown
B2: IL6R-BP262/IL6R-L (antibody, human IgG1, kappa)
heavy: B1 heavy with D235E, G239D, H270E, P273G, M325V, K332A
light: not shown
notes: Alterations in EU numbering, introduced into IL6R-B3
B3: IL6R-BP268/IL6R-L (antibody, human IgG1, kappa)
heavy: B1 heavy with G239D, H270E, P273G, Y298D, M325V, K332A
light: not shown
notes: as for B2
B4: IL6R-BP269/IL6R-L (antibody, human IgG1, kappa)
heavy: B1 heavy with D235E, G239D, H270E, P273G, Y298D, M325V, K332A
light: not shown
notes: as for B2
B5: IL6R-BP445/IL6R-L (antibody, human IgG1, kappa)
heavy: B1 heavy with G239D, V266I, S269A, H270E, P273G, M325V, K332R
light: not shown
notes: as for B2
B6: IL6R-BP479/IL6R-L (antibody, human IgG1, kappa)
heavy: B1 heavy with G239D, V266I, V268L, S269A, H270E, P273G, M325V, K332A
light: not shown
notes: as for B2
B7: IL6R-BP481/IL6R-L (antibody, human IgG1, kappa)
heavy: B1 heavy with G239D, V266I, S269A, H270E, P273G, M325V, K332A
light: not shown
notes: as for B2
B8: IL6R-BP483/IL6R-L (antibody, human IgG1, kappa)
heavy: B1 heavy with G239D, V268L, S269A, H270E, P273G, M325V, K332A
light: not shown
notes: as for B2
B9: IL6R-BP484/IL6R-L (antibody, human IgG1, kappa)
heavy: B1 heavy with G239D, S269A, H270E, E271D, P273G, M325V, K332A
light: not shown
notes: as for B2
B10: IL6R-BP492/IL6R-L (antibody, human IgG1, kappa)
heavy: B1 heavy with D235E, V266I, S269A, H270E, P273G, M325V, K332A
light: not shown
notes: as for B2
B11: IL6R-BP493/IL6R-L (antibody, human IgG1, kappa)
heavy: B1 heavy with D235E, V266I, S269A, H270E, P273G, Y298D, M325V, K332A
light: not shown
notes: as for B2
B12: IL6R-BP494/IL6R-L (antibody, human IgG1, kappa)
heavy: B1 heavy with D235E, G239D, S269A, H270E, P273G, Y298D, M325V, K332R
light: not shown
notes: as for B2
B13: IL6R-BP495/IL6R-L (antibody, human IgG1, kappa)
heavy: B1 heavy with D235E, G239D, S269G, H270E, P273G, Y298D, M325V, K332R
light: not shown
notes: as for B2
B14: IL6R-BP500/IL6R-L (antibody, human IgG1, kappa)
heavy: B1 heavy with D235E, G239D, V266I, S269A, H270E, P273G, Y298D, M325V, K332A
light: not shown
notes: as for B2
B15: IL6R-BP501/IL6R-L (antibody, human IgG1, kappa)
heavy: B1 heavy with D235E, G239D, V266I, S269A, H270E, P273G, M325V, K332A
light: not shown
notes: as for B2
B16: IL6R-BP504/IL6R-L (antibody, human IgG1, kappa)
heavy: B1 heavy with G239D, V266I, S269A, H270E, P273G, E274P, M325V, K332A
light: not shown
notes: as for B2
B17: IL6R-BP505/IL6R-L (antibody, human IgG1, kappa)
heavy: B1 heavy with G239D, V266I, S269A, H270E, P273G, E274D, M325V, K332A
light: not shown
notes: as for B2
B18: IL6R-BP508/IL6R-L (antibody, human IgG1, kappa)
heavy: B1 heavy with G239D, V266I, S269A, H270E, P273G, E274P, Y298D, M325V, K332A
light: not shown
notes: as for B2
B19: IL6R-BP509/IL6R-L (antibody, human IgG1, kappa)
heavy: B1 heavy with G239D, V266I, S269A, H270E, P273G, E274D, Y298D, M325V, K332A
light: not shown
notes: as for B2
B20: IL6R-BP532/IL6R-L (antibody, human IgG1, kappa)
heavy: B1 heavy with G239D, V266I, H270E, P273G, Y298D, M325V, K332R, P398M
light: not shown
notes: as for B2
B21: IL6R-BP534/IL6R-L (antibody, human IgG1, kappa)
heavy: B1 heavy with G239D, V266I, H270E, P273G, Y298D, M325V, K332R, P398L
light: not shown
notes: as for B2
B22: IL6R-BP535/IL6R-L (antibody, human IgG1, kappa)
heavy: B1 heavy with G239D, V266I, S269G, H270E, P273G, Y298D, M325V, A329G, K332R, P398M
light: not shown
notes: as for B2
B23: IL6R-BP537/IL6R-L (antibody, human IgG1, kappa)
heavy: B1 heavy with D235E, G239D, V266I, S269G, H270E, P273G, M325V, K332R
light: not shown
notes: as for B2
B24: IL6R-BP549/IL6R-L (antibody, human IgG1, kappa)
heavy: B1 heavy with D235E, G239D, S269G, H270E, P273G, M325V, K332R
light: not shown
notes: as for B2
B25: IL6R-BP552/IL6R-L (antibody, human IgG1, kappa)
heavy: B1 heavy with G239D, V266I, S269A, H270E, P273G, E274D, Y298D, M325V, K332R
light: not shown
notes: as for B2
B26: IL6R-BP553/IL6R-L (antibody, human IgG1, kappa)
heavy: B1 heavy with G239D, V266I, S269A, H270E, P273G, E274D, M325V, K332R
light: not shown
notes: as for B2
B27: IL6R-BP555/IL6R-L (antibody, human IgG1, kappa)
heavy: B1 heavy with D235E, G239D, V266I, S269A, H270E, P273G, E274D, Y298D, M325V, K332R
light: not shown
notes: as for B2
B28: IL6R-BP559/IL6R-L (antibody, human IgG1, kappa)
heavy: B1 heavy with D235E, V266I, S269A, H270E, P273G, E274D, Y298D, M325V, K332A
light: not shown
notes: as for B2

Key:
[1] = target: T4, FcγRIa extracellular domain with C-terminal His tag (human, UniProt P12314 16-292); test: SPR, captured antibody, FcgR analyte
T4 construct: also called FcgRIa
Description: (§1) Relative binding activities were calculated for the results of analyzing interactions with the respective FcγRs according to the following method.

[2] = target: T1, FcγRIIa type H extracellular domain …; test: SPR, captured antibody, FcgR analyte
Description: as §1

[3] = target: T2, FcγRIIb; test: SPR (Biacore); parent = IL6R-B3/IL6R-L
[4] = target: T3, FcγRIIa type R; test: SPR (Biacore); parent = IL6R-B3/IL6R-L
[5] = target: T5, FcγRIa (human, UniProt P12314 16-292); test: SPR (Biacore), captured antibody, soluble FcγR
T5 construct: Whole entry named; also called FcgRIa; CD64A

[6] = target: T2, FcγRIIb; test: SPR (Biacore), captured antibody, soluble FcγR
[7] = target: T3, FcγRIIa type R; test: SPR (Biacore), captured antibody, soluble FcγR

T5 sequence (P12314 16-292): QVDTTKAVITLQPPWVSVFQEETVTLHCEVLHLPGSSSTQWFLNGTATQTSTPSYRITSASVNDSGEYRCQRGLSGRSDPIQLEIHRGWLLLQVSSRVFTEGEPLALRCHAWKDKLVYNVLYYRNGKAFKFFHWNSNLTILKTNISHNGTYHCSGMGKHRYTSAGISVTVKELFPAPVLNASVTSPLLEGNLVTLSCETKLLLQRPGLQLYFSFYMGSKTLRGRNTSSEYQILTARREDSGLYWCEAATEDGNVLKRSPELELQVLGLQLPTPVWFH
T4 sequence (P12314 16-292): as above

Binder | relative binding activity [1] | relative binding activity [2] | KD(IIb) of the parent polypeptide/KD(IIb) of the altered polypeptide [3] [fold] | KD(IIaR) of the parent polypeptide/KD(IIaR) of the altered polypeptide [4] [fold] | Kd [5] [µM] | Kd [6] [µM] | Kd [7] [µM]
B1 | 104 relative (IL6R-BF648/IL6R-L = 100) | 224 relative (IL6R-BF648/IL6R-L = 100) |  |  |  |  | 
B2 |  |  | 25.8 | 0.5 | 0.01 | 0.12 | 2
B3 |  |  | 33.7 | 0.6 | 0.0045 | 0.092 | 1.8
B4 |  |  | 27.4 | 0.5 | 0.014 | 0.11 | 2.2
B5 |  |  | 1200 | 13.8 | 0.002 | 0.0026 | 0.08
B6 |  |  | 55.5 | 1.2 | 0.0053 | 0.056 | 0.9
B7 |  |  | 160 | 2.8 | 0.001 | 0.019 | 0.4
B8 |  |  | 39.7 | 0.8 | 0.0013 | 0.078 | 1.3
B9 |  |  | 67.8 | 1.4 | 0.00082 | 0.046 | 0.78
B10 |  |  | 131 | 1.2 | 0.00079 | 0.024 | 0.92
B11 |  |  | 147 | 1 | 0.00082 | 0.021 | 1.1
B12 |  |  | 471 | 4.3 | 0.0039 | 0.0066 | 0.25
B13 |  |  | 321 | 2.2 | 0.0083 | 0.0097 | 0.49
B14 |  |  | 128 | 1.5 | 0.0023 | 0.024 | 0.72
B15 |  |  | 123 | 1.7 | 0.0021 | 0.025 | 0.63
B16 |  |  | 128 | 2.4 | 0.0014 | 0.024 | 0.45
B17 |  |  | 145 | 2.6 | 0.0011 | 0.021 | 0.43
B18 |  |  | 149 | 2 | 0.0014 | 0.021 | 0.54
B19 |  |  | 174 | 2.1 | 0.0011 | 0.018 | 0.52
B20 |  |  |  |  | 0.012 | 0.0032 | 0.094
B21 |  |  |  |  | 0.0093 | 0.003 | 0.091
B22 |  |  |  |  | 0.011 | 0.004 | 0.092
B23 |  |  |  |  | 0.029 | 0.0069 | 0.27
B24 |  |  | 196 | 1.9 | 0.018 | 0.016 | 0.57
B25 |  |  |  |  | 0.0032 | 0.0026 | 0.097
B26 |  |  |  |  | 0.0034 | 0.0031 | 0.086
B27 |  |  |  |  | 0.0094 | 0.0041 | 0.16
B28 |  |  | 110 | 0.7 | 0.0011 | 0.028 | 1.6
